Assays:
[1] = biological target: humanized 12G8 anti-IL-10 antibody; assay: blocking ELISA: purified antibody titrated against biotinylated humanized 12G8, binding to coated human IL-10 read
[2] = biological target: humanized 12G8 anti-IL-10 antibody; assay: sandwich ELISA: capture 13G4 2.0 ug/mL, humanized 12G8 100 ng/mL, detection biotinylated 11F12 1.0 ug/mL
[3] = biological target: humanized 12G8 anti-IL-10 antibody; assay: sandwich ELISA: capture 13G4 0.5 ug/mL, humanized 12G8 100 ng/mL, detection biotinylated 11F12 0.5 ug/mL
[4] = biological target: humanized 12G8 anti-IL-10 antibody; assay: sandwich ELISA: capture 13G4 0.5 ug/mL, humanized 12G8 100 ng/mL, detection biotinylated 11F12 1.0 ug/mL
[5] = biological target: humanized 12G8 anti-IL-10 antibody; assay: sandwich ELISA: capture 13G4 2.0 ug/mL, humanized 12G8 100 ng/mL, detection biotinylated 11F12 0.5 ug/mL
[6] = biological target: humanized 12G8 anti-IL-10 antibody; assay: sandwich ELISA: capture 13G4 0.5 ug/mL, humanized 12G8 100 ng/mL, detection biotinylated 11F12 2.0 ug/mL
[7] = biological target: humanized 12G8 anti-IL-10 antibody; assay: sandwich ELISA: capture 13G4 2.0 ug/mL, humanized 12G8 100 ng/mL, detection biotinylated 11F12 2.0 ug/mL
[8] = biological target: humanized 12G8 anti-IL-10 antibody; assay: sandwich ELISA: capture 13G4 1.0 ug/mL, humanized 12G8 100 ng/mL, detection biotinylated 11F12 0.5 ug/mL
[9] = biological target: humanized 12G8 anti-IL-10 antibody; assay: sandwich ELISA: capture 13G4 1.0 ug/mL, humanized 12G8 100 ng/mL, detection biotinylated 11F12 1.0 ug/mL
[10] = biological target: humanized 12G8 anti-IL-10 antibody; assay: sandwich ELISA: capture 13G4 1.0 ug/mL, humanized 12G8 100 ng/mL, detection biotinylated 11F12 2.0 ug/mL

IC50 [1] [nM]	Signal:Noise Ratio [2]	Signal:Noise Ratio [3]	Signal:Noise Ratio [4]	Signal:Noise Ratio [5]	Signal:Noise Ratio [6]	Signal:Noise Ratio [7]	Signal:Noise Ratio [8]	Signal:Noise Ratio [9]	Signal:Noise Ratio [10]	Binder
1	–	–	–	–	–	–	–	–	–	JL11.13G4.B11 (antibody, V domains shown) VH: EVKLVESGGGLVKPGGSLKLSCAASGFAFSSYDMSWVRQTPEKRLEWVASISSDGSYTYYPDTVKGRFTISRDNARNTLNLQMSSLRSEDTALYFCARQDGYYLDYWGQGTTLTVSS VL: EIVLTQSPALMAASPGEKVTITCSVSSSISSSKLYWYQQKSETSPKPWIYGTSNLASGVPVRFSGSGSGTSYSLTISSMEAEDAATYYCQQWSSYPLTFGAGTKLELKR
2	7.5	10	8	22	8	20	32	40	25	JL11.11F12.C4 (antibody, V domains shown) VH: EVQVQQSGPELVKPGASMKISCKASGYSFTGYTMNWVKQSHGKTLEWIGLINPYNGGTTYNQKFKGKATLTVDKSSSTAYMELLSLTSEDSAVYYCARRGSGYAMDYWGQGTSVTVS VL: QIVLTQSPAIMSASLGERVAMTCTASSSVSSHYLHWYQQKPGSSPKLWIYSTSNLASGVPARFSGSGSGTSYSLTISSMEAEDAATYYCHQYHRSPWTFGGGTKLEIKR
